The text below walks through data of patent publication US20260070987A1.

Changes are numbered by the printed parent chain. In names and notes the source's numbering stands.

Sequences and labels used below:
B1: equine IgG7 wild-type (antibody, part only; not given: variable domains; allotype unstated, not shown: another chain or arm of the molecule)
constant: ASTTAPKVFPLASHSAATSGSTVALGCLVSSYFPEPVTVSWNSGALTSGVHTFPSVLQSSGLYSLSSMVTVPASSLKSQTYICNVAHPASSTKVDKKIVIKECGGCPTCPECLSVGPSVFIFPPKPKDVLMISRTPTVTCVVVDVGHDFPDVQFNWYVDGVETHTATTEPKQEQNNSTYRVVSILAIQHKDWLSGKEFKCKVNNQALPAPVQKTISKPTGQPREPQVYVLAPHRDELSKNKVSVTCLVKDFYPTDIDIEWKSNGQPEPETKYSTTPAQLDSDGSYFLYSKLTVETNRWQQGTTFTCAVMHEALHNHYTEKSVSKSPGK
B2: equine IgG7 K311C mutant (antibody, part only; not given: variable domains, not shown: another chain or arm of the molecule)
constant: B1 constant with K190C
B3: equine IgG7 K311D mutant (antibody, part only; not given: Variable domains, not shown: another chain or arm of the molecule)
constant: B1 constant with K190D
B4: equine IgG7 K311A mutant (antibody, part only; not given: Variable domains, not shown: another chain or arm of the molecule)
constant: B1 constant with K190A
B5: equine IgG1 D312N (antibody, part only; not given: variable domains, not shown: another chain or arm of the molecule)
constant: ASTTAPKVFALAPGCGTTSDSTVALGCLVSGYFPEPVKVSWNSGSLTSGVHTFPSVLQSSGFYSLSSMVTVPASTWTSETYICNVVHAASNFKVDKRIEPIPDNHQKVCDMSKCPKCPAPELLGGPSVFIFPPNPKDTLMITRTPEVTCVVVDVSQENPDVKFNWYMDGVEVRTATTRPKEEQFNSTYRVVSVLRIQHQNWLSGKEFKCKVNNQALPQPIERTITKTKGRSQEPQVYVLAPHPDELSKSKVSVTCLVKDFYPPEINIEWQSNGQPELETKYSTTQAQQDSDGSYFLYSKLSVDRNRWQQGTTFTCGVMHEALHNHYTQKNVSKNPGK
B6: equine IgG1 G426E (antibody, part only; not given: Variable domains, not shown: another chain or arm of the molecule)
constant: B5 constant with N200D, G316E
B7: equine IgG1 N434E (antibody, part only; not given: variable domains, not shown: another chain or arm of the molecule)
constant: B5 constant with N200D, N324E
B8: equine IgG1 G426F (antibody, part only; not given: variable domains, not shown: another chain or arm of the molecule)
constant: B5 constant with N200D, G316F
B9: equine IgG1 G426W (antibody, part only; not given: variable domains, not shown: another chain or arm of the molecule)
constant: B5 constant with N200D, G316W
B10: equine IgG1 G426L (antibody, part only; not given: variable domains, not shown: another chain or arm of the molecule)
constant: B5 constant with N200D, G316L
B11: equine IgG1 G426N (antibody, part only; not given: variable domains, not shown: another chain or arm of the molecule)
constant: B5 constant with N200D, G316N
B12: equine IgG1 M428Y (antibody, part only; not given: variable domains, not shown: another chain or arm of the molecule)
constant: B5 constant with N200D, M318Y
B13: equine IgG1 D312V (antibody, part only; not given: Variable domains, not shown: another chain or arm of the molecule)
constant: B5 constant with N200V
B14: equine IgG1 D312P (antibody, part only; not given: variable domains, not shown: another chain or arm of the molecule)
constant: B5 constant with N200P
B15: equine IgG1 M428C (antibody, part only; not given: variable domains, not shown: another chain or arm of the molecule)
constant: B5 constant with N200D, M318C
B16: equine IgG1 G426T (antibody, part only; not given: variable domains, not shown: another chain or arm of the molecule)
constant: B5 constant with N200D, G316T
B17: equine IgG1 D312W (antibody, part only; not given: variable domains, not shown: another chain or arm of the molecule)
constant: B5 constant with N200W
B18: equine IgG1 T286C (antibody, part only; not given: variable domains, not shown: another chain or arm of the molecule)
constant: B5 constant with T174C, N200D
B19: equine IgG1 G426S (antibody, part only; not given: variable domains, not shown: another chain or arm of the molecule)
constant: B5 constant with N200D, G316S
B20: equine IgG1 D312S (antibody, part only; not given: variable domains, not shown: another chain or arm of the molecule)
constant: B5 constant with N200S
B21: equine IgG1 M428A (antibody, part only; not given: variable domains, not shown: another chain or arm of the molecule)
constant: B5 constant with N200D, M318A
B22: equine IgG1 M428I (antibody, part only; not given: variable domains, not shown: another chain or arm of the molecule)
constant: B5 constant with N200D, M318I
B23: equine IgG1 M428V (antibody, part only; not given: variable domains, not shown: another chain or arm of the molecule)
constant: B5 constant with N200D, M318V
B24: equine IgG1 G426P (antibody, part only; not given: variable domains, not shown: another chain or arm of the molecule)
constant: B5 constant with N200D, G316P
B25: equine IgG1 D312Q (antibody, part only; not given: variable domains, not shown: another chain or arm of the molecule)
constant: B5 constant with N200Q
B26: equine IgG1 G426H (antibody, part only; not given: variable domains, not shown: another chain or arm of the molecule)
constant: B5 constant with N200D, G316H
B27: equine IgG1 G426C (antibody, part only; not given: variable domains, not shown: another chain or arm of the molecule)
constant: B5 constant with N200D, G316C
B28: equine IgG1 G426D (antibody, part only; not given: variable domains, not shown: another chain or arm of the molecule)
constant: B5 constant with N200D, G316D
B29: equine IgG1 M428W (antibody, part only; not given: variable domains, not shown: another chain or arm of the molecule)
constant: B5 constant with N200D, M318W
B30: equine IgG1 M252W (antibody, part only; not given: variable domains, not shown: another chain or arm of the molecule)
constant: B5 constant with M140W, N200D
B31: equine IgG1 T286A (antibody, part only; not given: Variable domains, not shown: another chain or arm of the molecule)
constant: B5 constant with T174A, N200D
B32: equine IgG1 G426R (antibody, part only; not given: variable domains, not shown: another chain or arm of the molecule)
constant: B5 constant with N200D, G316R
B33: equine IgG1 N434C (antibody, part only; not given: variable domains, not shown: another chain or arm of the molecule)
constant: B5 constant with N200D, N324C
B34: equine IgG1 N434A (antibody, part only; not given: Variable domains, not shown: another chain or arm of the molecule)
constant: B5 constant with N200D, N324A
B35: equine IgG1 M428E (antibody, part only; not given: variable domains, not shown: another chain or arm of the molecule)
constant: B5 constant with N200D, M318E
B36: equine IgG1 M428K (antibody, part only; not given: variable domains, not shown: another chain or arm of the molecule)
constant: B5 constant with N200D, M318K
B37: equine IgG1 M252Y (antibody, part only; not given: variable domains, not shown: another chain or arm of the molecule)
constant: B5 constant with M140Y, N200D
B38: equine IgG1 D312T (antibody, part only; not given: Variable domains, not shown: another chain or arm of the molecule)
constant: B5 constant with N200T
B39: equine IgG1 G426K (antibody, part only; not given: Variable domains, not shown: another chain or arm of the molecule)
constant: B5 constant with N200D, G316K
B40: equine IgG1 G426A (antibody, part only; not given: variable domains, not shown: another chain or arm of the molecule)
constant: B5 constant with N200D, G316A
B41: equine IgG1 M428G (antibody, part only; not given: variable domains, not shown: another chain or arm of the molecule)
constant: B5 constant with N200D, M318G
B42: equine IgG1 G426M (antibody, part only; not given: variable domains, not shown: another chain or arm of the molecule)
constant: B5 constant with N200D, G316M
B43: equine IgG1 M428T (antibody, part only; not given: variable domains, not shown: another chain or arm of the molecule)
constant: B5 constant with N200D, M318T
B44: equine IgG1 M428F (antibody, part only; not given: variable domains, not shown: another chain or arm of the molecule)
constant: B5 constant with N200D, M318F
B45: equine IgG1 M428Q (antibody, part only; not given: Variable domains, not shown: another chain or arm of the molecule)
constant: B5 constant with N200D, M318Q
B46: equine IgG1 G426V (antibody, part only; not given: Variable domains, not shown: another chain or arm of the molecule)
constant: B5 constant with N200D, G316V
B47: equine IgG1 M428H (antibody, part only; not given: variable domains, not shown: another chain or arm of the molecule)
constant: B5 constant with N200D, M318H
B48: equine IgG1 G426Q (antibody, part only; not given: variable domains, not shown: another chain or arm of the molecule)
constant: B5 constant with N200D, G316Q
B49: equine IgG1 D312Y (antibody, part only; not given: variable domains, not shown: another chain or arm of the molecule)
constant: B5 constant with N200Y
B50: equine IgG1 M428L (antibody, part only; not given: variable domains, not shown: another chain or arm of the molecule)
constant: B5 constant with N200D, M318L
B51: equine IgG1 M428N (antibody, part only; not given: Variable domains, not shown: another chain or arm of the molecule)
constant: B5 constant with N200D, M318N
B52: equine IgG1 G426Y (antibody, part only; not given: variable domains, not shown: another chain or arm of the molecule)
constant: B5 constant with N200D, G316Y
B53: equine IgG1 G426I (antibody, part only; not given: variable domains, not shown: another chain or arm of the molecule)
constant: B5 constant with N200D, G316I

In one experiment the target is equine FcRn (large alpha subunit p51) in complex with equine beta-2-microglobulin (equine) (UniProt F6XZ61). Put plainly: SPR (Biacore), pH 6.
UniProt F6XZ61, sequence (F6XZ61 entry or part of it, one chain of several): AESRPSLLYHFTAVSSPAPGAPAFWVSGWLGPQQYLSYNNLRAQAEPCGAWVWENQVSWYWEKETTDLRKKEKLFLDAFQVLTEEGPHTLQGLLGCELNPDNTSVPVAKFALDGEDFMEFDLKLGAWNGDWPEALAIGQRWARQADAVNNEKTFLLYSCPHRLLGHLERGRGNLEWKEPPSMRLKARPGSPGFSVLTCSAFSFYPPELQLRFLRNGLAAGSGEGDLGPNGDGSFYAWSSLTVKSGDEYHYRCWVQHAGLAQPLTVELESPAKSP
On to B1, for which the dissociation constant Kd (in general, a measure of binding affinity in units of concentration) was found to be 21.7 nM. Consider B2, for which the Kd amounted to 15.9 nM.

In the case of B3, the Kd was 34.1 nM.

The molecule B4 displayed a Kd of 24.4 nM.

The target in another experiment is equine FcRn (large alpha subunit p51) / equine beta-2-microglobulin complex, biotinylated (equine) (UniProt P30441). Put plainly: SPR (Biacore), pH 6. For orientation: Surface plasmon resonance follows binding to a sensor surface in real time, without labels.
UniProt P30441, sequence (P30441 21-118, one chain of several): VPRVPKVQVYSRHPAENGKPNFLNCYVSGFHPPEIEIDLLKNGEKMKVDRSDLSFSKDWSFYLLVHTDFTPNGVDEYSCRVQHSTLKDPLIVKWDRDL
B5 had a Kd of 22.3 nM. The molecule B6 registered an equilibrium dissociation constant (Kd) of 24.1 nM.

Regarding B7, the dissociation constant (Kd) was determined as 50.6 nM.

The molecule B8 had a Kd of 13.1 nM. Take B9: the Kd turned out to be 14.7 nM. B10 had an equilibrium dissociation constant (Kd) of 9.61 nM. As for B11, the Kd was 10.3 nM. On to B12, for which the Kd is 17 nM. B13 showed a dissociation constant Kd of 8.32 nM. In the case of B14, the Kd amounted to 8.88 nM. Take B15: the Kd was 47.5 nM. For the molecule B16, the Kd turned out to be 9.73 nM. Still for that read-out and setting: in the case of B17 it was 21.6 nM; in that of B18, 35.4 nM. On to B19, for which the Kd was 8.97 nM.

B20 had a Kd of 16.7 nM.

The molecule B21 came in with a dissociation constant Kd of 76 nM. The molecule B22 registered a Kd of 28 nM. The molecule B23 returned a dissociation constant Kd of 65.8 nM.

For B24, the dissociation constant (Kd) was determined as 23.9 nM.

B25: the Kd came out at 46 nM. On to B26, for which the dissociation constant (Kd) amounted to 12.8 nM.

B27 registered a dissociation constant Kd of 20.4 nM. Same read-out and setting: to B28 belongs 25.3 nM; to B29, 31.9 nM.

On to B30, for which the Kd was found to be 26.6 nM. B31: the Kd is 18.5 nM. As for B32, the equilibrium dissociation constant (Kd) is 10.3 nM. B33 yielded a Kd of 42.6 nM. The molecule B34 yielded a Kd of 6.54 nM. The molecule B35 showed a dissociation constant (Kd) of 43.9 nM. B36 returned a Kd of 28.7 nM. For the molecule B37, the dissociation constant (Kd) turned out to be 19.3 nM.

On to B38, for which the dissociation constant Kd amounted to 20.3 nM. For B39, the dissociation constant Kd amounted to 9.3 nM. For the molecule B40, the equilibrium dissociation constant (Kd) turned out to be 17.6 nM. Still for that read-out and setting: in the case of B41 it was 48.8 nM; in that of B42, 9.09 nM; in that of B43, 34.8 nM. The molecule B44 displayed an equilibrium dissociation constant (Kd) of 17.3 nM. Molecule B45 yielded a Kd of 32.9 nM. As to B46, the dissociation constant (Kd) was 8.79 nM. B47: the dissociation constant (Kd) was found to be 33.1 nM. In turn, B48 came in with a Kd of 9.01 nM. Still for that read-out and setting: in the case of B49 it was 17.1 nM. Take B50: the Kd stood at 8.76 nM. In turn, B51 displayed a Kd of 51.6 nM. Take B52: the Kd was found to be 11.9 nM. B53 displayed a Kd of 9.47 nM.
